The record followed here is article PMC7407080, “Methylglyoxal Detoxification Revisited: Role of Glutathione Transferase in Model Cyanobacterium Synechocystis sp. Strain PCC 6803” (mBio, 2020).

In series [1] the target is T1, Sll0067 GST (Synechocystis sp. PCC 6803, UniProt Q55139).
T1 sequence (Q55139 1-184): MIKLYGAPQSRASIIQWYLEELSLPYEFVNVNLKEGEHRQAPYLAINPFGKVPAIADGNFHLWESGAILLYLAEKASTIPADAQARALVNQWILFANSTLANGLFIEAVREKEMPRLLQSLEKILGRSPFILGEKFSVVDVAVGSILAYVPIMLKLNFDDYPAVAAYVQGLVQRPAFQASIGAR
Description: absorbance at […] nm, GSH conjugation, Michaelis-Menten fit. The format is biochemical. The conditions noted are these: 1 mM GSH; 30 mM Tris-HCl pH 8.0, 1 mM EDTA; 25°C; read-out: affinity (apparent Km).

Series [2] concerns the target T1, Sll0067 GST. Description: initial velocity of GSH-MG conjugation with added S-lactoylGSH. Format: biochemical. The note with it: activator; co-substrates GSH and MG.
The target in series [3] is Sll0067 glutathione transferase (GST) of Synechocystis sp. strain PCC 6803, His-tagged recombinant protein (Synechocystis sp. strain PCC 6803). Description: SEC-MALS; 300 ug of purified protein in 300 ul injected at 0.5 ml/min on an analytical Superdex 200 10/300 column, 30 mM Tris-HCl pH 8.0, 200 mM NaCl; miniDAWN TREOS detector and T-rEX refractometer. On the technique in general: Size exclusion chromatography separates by hydrodynamic size, large species first.

Substrate in series [4]: S=C=NCCc1ccccc1
Briefly: purified protein. Format: biochemical, Synechocystis sp. PCC 6803. The note with it: 1 mM GSH, 100 mM phosphate pH 6.5, 25°C.

Substrate in series [5]: S=C=NCc1ccccc1
Description: purified protein. The format is biochemical, Synechocystis sp. PCC 6803. The note with it: 1 mM GSH, 100 mM phosphate pH 6.5, 25°C.

Substrate in series [6]: CC(=O)C=O
Description: two-substrate steady-state kinetics, remaining MG by DDP fluorescence; secondary plot, allosteric sigmoidal fit. Format: biochemical, Synechocystis sp. PCC 6803. The note with it: varied GSH, 100 mM potassium phosphate, 1 mM EDTA, pH 7.5, 30°C, Hill number 1.873 ± 0.261. The source says: two-substrate steady-state kinetics, remaining MG by DDP fluorescence; secondary plot, allosteric sigmoidal fit on Sll0067 GST

The term Km denotes the concentration of substrate that gives half-maximal velocity. Regarding `O=[N+]([O-])c1ccc(Cl)c([N+](=O)[O-])c1` [1-chloro-2,4-dinitrobenzene], the Km on Sll0067 GST [1] is 3800 µM.

Turning to `C[C@@H](O)C(=O)SC[C@H](NC(=O)CC[C@H](N)C(=O)O)C(=O)NCC(=O)O` [S-D-lactoylglutathione], on Sll0067 GST [2], the “initial velocity of GSH-MG conjugation with added S-lactoylGSH” value was “All measured initial velocities of Sll0067 activity were increased by S-lactoylGSH”. In general, stoichiometry N refers to a count of units in the complex or per binding partner. Regarding “Sll0067 glutathione transferase (GST) of Synechocystis sp. strain PCC 6803, His-tagged recombinant protein (enzyme)”, the stoichiometry N in series [3] was 2.

B1: Sll0067 GST (Synechocystis sp. PCC 6803 substr. Kazusa) (protein)
chain: MIKLYGAPQSRASIIQWYLEELSLPYEFVNVNLKEGEHRQAPYLAINPFGKVPAIADGNFHLWESGAILLYLAEKASTIPADAQARALVNQWILFANSTLANGLFIEAVREKEMPRLLQSLEKILGRSPFILGEKFSVVDVAVGSILAYVPIMLKLNFDDYPAVAAYVQGLVQRPAFQASIGAR
For the molecule B1, the Km in the series “purified protein [4]” was 31.4 µM; in “purified protein [5]”, 82.0 µM. The K0.5 in series [6] was 221.7 ± 26.3 µM.
